Test results published in patent publication US20250236644A1, “De Novo Designed Stimulus-responsive Two-state Hinge Proteins” (University of Washington, priority 2024, published 2025).
Each block holds one molecule with its values, some of them ahead of it.

Experiments:
TAMRA-cs094B = assay: FP titration and kinetics, hinge vs TAMRA-cs094B; type: binding; conditions: Effector TAMRA-cs094B; method FP
Description: (§1) All FP measurements were performed at 25° C. in 96-well plates (Corning 3686) using a Synergy Neo2™ plate reader and a 530/590 nm filter cube. The buffer for all FP measurements was 20 mM Tris-HCl, 100 mM NaCl, 0.05% v/v TWEEN20 at pH 8. Titrations were carried out in 96-well format, with 4 replicates per plate and 24 data points per titration (23 steps of two-fold serial dilution of hinges in the presence of TAMRA-labeled peptide at a constant concentration between 0.1 nM and 1 nM) with a final sample volume of 80 μl per well. Titration plates were incubated overnight at room temperature before measuring to ensure complete equilibration. The polarization signal S (as calculated by the Neo2™ software) was fitted to the equation
(§2) where fAB is the fraction of peptide that is bound, Atot is the absolute hinge concentration, Btot is the absolute peptide concentration, S0 is the baseline polarization of free peptide, and S1 is the change in polarization upon complex formation.
(§3) Fitting was performed using the scipy.optimize.curve_fit python function (53). Uncertainties for KD values are standard deviation errors calculated from the covariance matrix of the fits. In cases where the fitted KD was lower than the concentration of the labeled peptide Btot, we report the KD as KD<Btot. […]

TAMRA-js007B = assay: FP titration and kinetics, hinge vs TAMRA-js007B; type: binding
Description: as §1, §2, §3

TAMRA-cs074B = assay: Fluorescence polarization (FP) titration and kinetics, hinge vs TAMRA-cs074B; type: binding
Description: as §1, §2
(§4) Fitting was performed using the scipy.optimize.curve_fit python function (53). Uncertainties for KD values are standard deviation errors calculated from the covariance matrix of the fits. In cases where the fitted KD was lower than the concentration of the labeled peptide Btot, we report the KD as KD<Btot.
(§5) For FP kinetics experiments a 2× peptide solution and 8 different 2× hinge solutions at different concentrations were prepared separately. 40 μl of each hinge solution were mixed with 40 μl peptide solution using a multichannel pipet and the measurement was started immediately after mixing. Polarization signals S at each concentration were fitted individually to the equation
(§6) where S0 is the amplitude, S1 is the polarization at equilibrium, kapp is the apparent rate constant, t is the time after start of the measurement, and t0 is the dead time between mixing and start of the measurement. For each hinge-peptide pair, the apparent rate constants for 8 different concentrations are fitted to the equation
(§7) where koff and kon are observed off- and on rates and Atot is the absolute hinge concentration.

TAMRA-cs221B = assay: FP titration and kinetics, hinge vs TAMRA-cs221B; type: binding; conditions: 1 nM peptide cs221B, varying hinge; FIG. 10
Description: as §1, §2, §4, §5, §6, §7

TAMRA-cs201B = assay: FP titration and kinetics, hinge vs TAMRA-cs201B; type: binding; conditions: 1 nM peptide cs201B, varying hinge; FIG. 10
Description: as §1, §2, §4, §5, §6, §7

three-helix bundles = assay: SEC binding experiments with three-helix bundles; conditions: FIG. 16A
Description: (§8) Individual hinge and sfGFP-fused peptides or 3hb were diluted in 20 mM Tris pH 8, 100 mM NaCl and mixed at approximately 1:1 concentrations. 0.5-1 mL of the resulting samples were injected onto a Superdex™ 200 Increase 10/300 GL columns and the absorbance at 230 nm was used as a readout for binding. For sfGFP-fused peptides, 473 nm was also used as readout. Mixtures were at a total concentration of 2. μM or higher.

off-target peptides = assay: Pairwise FRET titrations of labeled hinges with off-target peptides; type: binding; conditions: 2 nM labeled hinge; off-target peptides at μM concentrations; flat lines
Description: A critical feature of two-state switches in biology and technology is the coupling between the state control mechanism and the populations of the two states. To quantitatively investigate the thermodynamics and kinetics of the effector induced switching between the two states of our designed hinges, we used Forster resonance energy transfer (FRET). […]
(§9) The buffer for all FRET measurements was 20 mM Tris-HCl, 100 mM NaCl, 0.05% v/v TWEEN®20 at pH 8. Fluorescence spectra were recorded at room temperature using a FluoroMax™ spectrometer in a 1 cm×1 cm cuvette at a sample volume of 3 ml. FRET titrations and kinetics measurements were performed at 25° C. in 96-well plates (Corning 3686) using a Synergy Neo2™ plate reader. […]
(§10) Titrations were carried out in 96-well format, with 4 replicates per plate and 24 data points per titration (23 steps of two-fold serial dilution of effector (peptide or 3hb) in the presence of double-labeled hinge at a constant concentration of 2 nM) with a final sample volume of 80 μl per well. […] The raw fluorescence signal (donor emission upon acceptor excitation) was fitted to the equation

cs201B = assay: FRET titration and kinetics, labeled extended hinge vs peptide cs201B; type: binding
Description: (§11) AlexaFluor™ 555 C2 maleimide (donor) and AlexaFluor™ 647 C2 maleimide (acceptor) were purchased from ThermoFisherScientific. Stock solutions at −5 mM were prepared by dissolving 1 mg of each dye in 200 μl DMSO. Hinge variants containing two cysteines were expressed and purified as described above with the modification that 0.5 mM TCEP was used during lysis, IMAC and SEC, and that the buffer for initial SEC contained 20 mM sodium phosphate (PH 7.0) instead of Tris-HCl. After SEC, 500 μl hinge at a concentration of 50 μM was incubated with 500 μM of a single dye for controls or 250 μM each of two dyes. After 2 h incubation at room temperature, samples were purified by SEC using a buffer containing 20 mM Tris-HCl and 100 mM NaCl at pH 8.
(§12) The buffer for all FRET measurements was 20 mM Tris-HCl, 100 mM NaCl, 0.05% v/v TWEEN®20 at pH 8. Fluorescence spectra were recorded at room temperature using a FluoroMax™ spectrometer in a 1 cm×1 cm cuvette at a sample volume of 3 ml. FRET titrations and kinetics measurements were performed at 25° C. in 96-well plates (Corning 3686) using a Synergy Neo2™ plate reader. Excitation wavelength was 520 nm and emission wavelength was 665 nm (except for donor-donor controls for which emission wavelength was 555 nm, see FIG. 13B right column).
as §10
(§13) Fitting was performed using the scipy.optimize.curve_fit python function (53). Uncertainties for KD values are standard deviation errors calculated from the covariance matrix of the fits. […]
(§14) For FRET kinetics experiments a 2× hinge solution and 8 different 2× effector solutions at different concentrations were prepared separately. […] Fluorescence signals S at each concentration were fitted individually to the equation […]

3hb21 = assay: FRET titration and kinetics, labeled extended hinge vs 3hb21; type: binding
Description: as §11, §12, §10, §13, §14

cs221B = assay: FRET titration and kinetics, labeled extended hinge vs peptide cs221B; type: binding; conditions: Effector cs221B; method FRET
Description: as §11, with “After 2 h incubation at room temperature, samples were purified by SEC using a buffer containing 20 mM Tris-HCl and 100 mM NaCl at pH 8.” left out
as §9
as §10, with “equation […]” for “equation”

[1] = tested on: original peptides fused to superfolder green fluorescent protein (sfGFP); assay: SEC binding experiments with original peptides fused to sfGFP; conditions: FIG. 17C
Description: as §8

3hb21, sequence (as listed by the source): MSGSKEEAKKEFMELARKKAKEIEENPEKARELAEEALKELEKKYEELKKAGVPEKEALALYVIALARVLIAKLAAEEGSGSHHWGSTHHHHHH
cs201B, sequence (as listed by the source): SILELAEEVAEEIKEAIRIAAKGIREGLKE
TAMRA-cs074B, sequence (as listed by the source): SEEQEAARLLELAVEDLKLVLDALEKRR
TAMRA-js007B, sequence (as listed by the source): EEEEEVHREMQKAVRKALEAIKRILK
TAMRA-cs094B, sequence (as listed by the source): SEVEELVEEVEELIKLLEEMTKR
TAMRA-cs221B, sequence (as listed by the source): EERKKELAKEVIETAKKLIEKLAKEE

B1: cs094: designed hinge protein, SEQ ID NO:5 (protein)
chain: MSGDEEERLRQEVEKAEKELEKLAKQSTDEEVRKMVREVAKQLRRLAEEAIRQKDDEALRQATEVVKMVQEAVKVAQKTTDQKVILLLLAVALVAIKVAQLAIRSDDTEALRLARIVIRAVQLLVKLVQKTTDPEVRRTALRVAELLAKLAKEAIERNDEEALREASEVVKEVQELVKEAEKSTDEEEIRELLQRAEERIREAQERIREGSGSHHWGSTHHHHHH
kon (TAMRA-cs094B): 9400 M⁻¹ s⁻¹

binding in FP titration (TAMRA-js007B; 1 nM peptide js007B, varying hinge, FIG. 10): not binding
binding in FP titration (TAMRA-cs074B; 1 nM peptide cs074B, varying hinge, FIG. 10): not binding
binding in FP titration (TAMRA-cs221B): specifically binds
binding in FP titration (TAMRA-cs201B): not binding
B2: csw13: cs201-derived hinge redesigned to bind peptide cs221B, SEQ ID NO:17 (protein)
chain: MSGNEEVKKLVEEAKKYLKEAEEYIKKAKKTGNEELLEKALKLLEKALELVKKAIELDPNNKEAIEQAVEIARALNEVAELLIEEAKKTGNEELLEKALEALEAANEALKLAIENNENDKELLAEIAVELAEVGVLLAEVLIEEAKKTGDPELLKLALEVLEAAVEALELALKLDPNNEEAVELAEEAAKLLEEVAKELKEEAKKTGDPELEKLAKEAEELAKRAKELAERQRGSGSHHWGSTHHHHHH

SEC binding to three-helix bundles (three-helix bundles): clear binding
B3: cs074: de novo designed two-state hinge protein, SEQ ID NO:4 (protein)
chain: MSGDEEVQEAVERAEELREEAEELIKKARKTGDPELLRKALEALKEAVRAVKEAIKRNPDNEEAVKTAVRLARELLKVAEELKERAEKTGDPRLLLLAAEAIAWAIEAVFLAAKASENTEGALEAARAAVKLAEVAKRIAKLLQRDAKKEGDPELLKLALRALELAVRAVELAIKENPDNEEAVETAKRLAEELRKVAELLEERAKETGDPELQELAKRAKEVADRARELAKKSNPNNGSGSHHWGSTHHHHHH
kon (TAMRA-cs074B; Effector TAMRA-cs074B, method FP): 64000 M⁻¹ s⁻¹

B4: cs201F: extended hinge cs201 for FRET labeling, SEQ ID NO:30 (protein)
chain: MSGDEEVQEAVERAEELREEAEELIKKARKTGDPELLRKALEALEEAVRAVEEAICRNPDNDEAVETAVRLARELKKVAEELQERAKKTGDPELLKLALRALEVAVRAVELAIKSNPDNDEAVETAVRLARELKKVAEELQERAKKTGDPELLKLALRALEVAVRAVELAIKRNPDNEEAIKTALRLARELRKVAKELIERARKTGDAELLKKALEAARVAVEAVRLAAEYNKENAEKMAELLVELAELAREVADVLIELAEKTGDPELLKKALEVLEEAVEAVRLAIEYDPDHDEAVETAVRLARELKKVAEELQERAKKTGDPELLKLALRALEVAVRAVELAIKSNPDNEEAVETAKRLAEELRKVAELLEERAKETGDPCLQELAKRAKEVADRARELAKKSNPNNGSGSHHWGSTHHHHHH
off-target FRET titration outcome (off-target peptides): no conformational change
reversibility of hinge conformational change (cs201B; 30 nM FRET-labeled hinge, peptide added, then excess unlabeled hinge cs201): fully reversible
kon (cs201B; Effector cs201B, method FRET): 4500 M⁻¹ s⁻¹

binding compared with the original peptide cs221B (3hb21; FRET): significantly tighter
KD, times stronger than the KD of the original peptide cs221B (3hb21; FRET titration, 2 nM hinge): at least 20 times
B5: cs221F: extended hinge cs221 for FRET labeling, SEQ ID NO:31 (protein)
chain: MSGEMVEEIEKLAEELAKKTKDCEVKKLAKKAAELAKKSTDEMKKEIVKDALELALRTKDEEVIRLALKAAVLAAESDDEEVKEVVKKALEAALKSKDEEVIRLLLLAAVLAAAAARSGSPEEKLEIAKKALELAMKSKDEEVIRLALLAAVLAARSDDEEVLKIVKKALELAMESKDVEVIRLALEAAVLAARSTDPEKKKCVYEALEKAMESKDEEEIKKELKAAVEKARSTEGSGSHHWGSTHHHHHH
off-target FRET titration outcome (off-target peptides): no conformational change
kon (3hb21; Effector 3hb21, method FRET, 5 nM hinge): 13000 M⁻¹ s⁻¹
kon (cs221B): 2600 M⁻¹ s⁻¹

SEC binding experiment with sfGFP-fused original peptide [1]: higher-order peaks
B6: cs230: designed hinge protein, SEQ ID NO:12 (protein)
chain: MSGTKEEKERIERIEKEVRSPDPENILEAVRKALELFRENPSEEAKELLKRAIEAALRSEDERAILEALRAALEAYRQGAGDREGLLEAIRVAIRRAAESEDERAILEAVRAARILLEAERTEEAKELLRVAIERAKKSPDPEAQREAKRAEEELRKEDGSGSHHWGSTHHHHHH

B7: js007: designed hinge protein, SEQ ID NO:11 (protein)
chain: MSGSEEVNERVKQLAEKAKEATDKEEVIEIVKELAELAKQSTDPNLVAEVVRALTEVAKTSTDTELIQEIVKVLLELARRLTDPQLLLEVLKSIAELLKELAEKTGNETAKLAALVAQIAAEVVEMALRAEKTHPGSEIVKLAVELVQKVAEIVLIAAQLMLDKPNSDEVRKVLKEVEKVAREALKALREAKRHPDSQKARDEIKEASQKAEEVKERIERAQEGSGSHHWGSTHHHHHH
kon (TAMRA-js007B; Effector TAMRA-js007B, method FP): 78000 M⁻¹ s⁻¹
